# Results from the DeepSol protein solubility set.
# Experiment: soluble on expression in E. coli; label from the status in PepcDB or PDB records
row,Sequence,soluble on expression in E. coli
1,MTSGAPPTISTEKSRSKQLRKSSKRTASTVEGTEAKQMRGDTENRSDGEMDDVSTSSEIRHGNGFIENFRSQTGNSSRTTATNERIKKKLVIKNFKANANQNDVAMGDTNIDSTDGSVGRDWAVLSDNVFAILEDRKTVTTLEGLFSKVRSVCDKNQSKVLYDRLVAIVVQFAKSLKESLNAVEQVPLAEDNCEQYLEKFGQIWQAYPVKINLIRNIFLHLDRIALGATDTEILPLWECFMQIFQKTFFPNIFKEFKATKLFNALYMAMQKIMQRYPVDSPLRSLVDMLQTVHVSEEFAKFLISQLREHYNNERIDKVPKMNCNDYMEYCEDQINRYSQLVKVNFDEPSALKDVQATVTNCLIQQAIPEILTHDFDDLIDSDNISDIGRMFNLCRQCVGGEDEVRTQFSKYLKKRGEKLIATCPDEDLVSELLAFKKKVDFIMTGSFKSANDPVKMRQCLSDAFESFVNKQVDRSAELISKHFHTLLHSSNKNVSDDTTLDQMVDEAIVLFRYLRGKDVFEAYYKRGLAKRLFLERSASVDAEKMVLCKLKTECGSAFTYKLEGMFKDMDASENYGRLFNQYLEHMNKEKANFTARVITPEYWPTYDTYEINIPKEMRDTLTDYQDFYRVQHGNRNVKWHHGLASAVISASFRPGCKKELIATMYQTVILLLFNKCETWTVAEIVEHTKILEIEVVKNVLALLGGRDKPKVLQRVEGGGSEKKEGTVENLKNEKFVVNSKFTEKRCRVRIAQVNIKTAVEETKEVKEEVNSDRQYKIDAAVVRIMKARKQLNHQTLMTELLQQLRFPVSTADIKKRLESLIEREYISRDPEEASSYNYVA,not soluble
2,MTSGGNSIEPSVVAEAEKMLFCYQYDQTITISITSSADPCPLCNGGFLDEYVDPNPNPIPNLILPMSDPISSRFSFIPVMDFTNPSFLGESMEPQSTQQQLNAFDPNQLSDQANPLAGNHGDYFFGRGLEDLI,not soluble
3,MTSGQFKPVPQILMELPPAEQQRLFNEAAAIIRHLEWTDAVQLTALVMGSEALQQQLLAMLVNYVTKELRAEIQYDD,soluble
4,MTSSDLPVMLFAAGFGTRMGDLTRTRPKPLIEVAGRPLVDHTLDLARAVSPPRIVANLHYLAPLLAAHLAPQGVLLSHEQPDILDTGGGLRQALPLLAAETVFTANSDAIWSGPNPFALLAEAWEPARMDALLMCVPVGQAIGHAGHGDFSRDAQGRIERGPGLIYGGVQIVKTGGLGDFDMPAFSLNLLWNRIGAAGRLFALEYPGRWCDVGHPGGIALAEEMLRDVLEHHHHHH,soluble
5,MTSSQLVKMRLELRRGVLVLAVLGLLKQPHYGYSLRKQLQDGGIDIDEGTLYPLVRRLAEQGLLDSEWRQAEGRERRYYQLSSSGAELLSQLTEEWQQLNGALAFLLGQVTDENAEEN,not soluble
6,MTSYEEETDYRNVPRELLDNNIPMGRGMIKWAPFATLPEQFETIQQYIIDQNKITRPVLSDDQLAELNIRLHEALQYAQPVEVKFYNNGFVDSVRLTIYRIDAINYEIDGYVYNQQQRQKISIFDILDIVLLPLEHHHHHH,soluble
7,MTTAARRPAPTTAGAGWDAGVGALVNPSRRRGGTLRLVSSADVDSLDPARTYYVWVWLLQRLLNRTLMAYPTDPGPAGLVPAPDLAEGPGEVSDGGRTWTYRLRRGLRYDDGTPITSDDVRHAVQRVFAQDVLPGGPTYLIPLLDDPERPYPGPYRTDEPLRSVLTPDEHTIVFRLTRPFSDFDHLMAQPCAAPVPRRSDTGADYGRDPRSSGPYRVARHEPDTLLHLERNPHWDRATDPIRPALPDRVELTIGLDVDVLDARLIAGEFDINLEGRGLQHAAQRRATADEVLRSHTDNPRTSFLHFVAMQPHIPPFDNVHVRRAVQYAADKILLQDARGGPVNGGDLTTALFPPTLPAHQDLDLYPTGPDLRGDLDAARAELAAAGLPDGFRAVIGTQRGKFRLVADAVVESLARVGIELTVKELDVATYFSLGAGHPETVREHGLGLLVTDWGADFPTEYGFLAPLVDGRQIKRNGGNWNLPELDDPEVNALIDETLHTTDPAARAELWRAVERRVMEHAVLLPLVHDKTLHFRNPWVTNVYVHPAFGLYDIQAMGLAEED,soluble
8,MTTDIRPLLVELFTEELPPKALQKLGQAFAEGVRATLARHHLLADGCAVEPFATPRRLAVRLSAVLAQAPEQAYAEKLMPVKVGLDANGQPTAALAKKLAAKGLEGLDPATLERESDGKQEYLVARGTAAGAQLAVGLQEGLDAAIDGLPIPKVMRYQLADGQTTVKFVRPAHGLVALFGADIVPIAALGLQAGRATQGHRFQSNGAIELATAQGYEADLAERGRVIASFEARRAEISRLLDEHAQRLGATLGDDPEVTALLDEVTALVEHPTVYVGQFEEQFLQVPQECLILTMRLNQKYFPLFDPASGKLTHRFLIVSNMQVADPANIVEGNQRVVRPRLADAQFFFETDRKTPLAARVEQLGSIVYHNKLSTQLERVERVRAIARGIATALGGDAAHCDRAALLAKADLGSNMVGEFPELQGIMGAYYAQGDGEPADVVTALRTQYRNRYDAPVDAATLTAATLFIAERIETLVGIWSIGLAPTGERDPFGLRRAALGLISAFEQLAAGGWLKVSEDGPLSLDGLLALAAQAFPDGKIGADTLAEVRAFIYERYRNQLIGEHDRNAVEAVIALAPPL,not soluble
9,MTTIFKLLRLPKNTIFQVLRQFKCLDLIAFSVCSKYAKSCVMYSTTSNKQKTIRIEFDDTIQFDLSPITKHICLFELLADQRNVLRKNFNECEMIINGNNFIRTEWSIAGFAIKDWMKHFLDIFGGPKIDIISFSGKGFNRTWFPRDLFRIFNAQSFYCVIDFILKILRSFQYPESLTTCKGKSLGRKPLNTIFILNFKSVKYYGRHQFQLTLNQLLAMNISTLKLLDSAISSKNLNFFLKHWLNGSNKRLEVLEIFGLNAYSPTIIFKNVAYQVILEDEIFSIYNEVFTFGYEIERSCDETRAAIFINSMPEVSHYCFRMIVGEVPNYLIIY,not soluble
10,MTTILAFDIETVPDVQGIRTLYELPSSLPDDEVVLFAQQKRRAQTGGDFMQHHLHQVVAISCCMRWGQDKVHVGTIGEMDDGEEVVIAKFFELIEKHTPQLVSWNGGGFDLPVLHYRSLIYGINAARYWDMGDGDFGDSRDFKWNNYISRYHQRHCDLMDLLALYQPRANVPLDDMAKLCGFPGKLGMDGSKVWEAFHTGRLKEIRNYCETDAANTYLMYLRFCLVSGRLDADEYEMEIKRMRNYLSAQAGEKPHWEEFVRAWE,not soluble
11,MTTLGTPVSLGRRTRTGRLELEFGVRHGQTALLRDLQKAPLMVVRPFRLPCGTLMVFIVNPTGGVLGGDHSEIHVEAGAGTRVLILTQSATRVQPSPGGEWATQELHFHVGVGARLEYYPERTLPFAGSRFRQHLRADLGAGAEFGLLETLASGRVQMGERLAWADYRSEVSVYAAQERVYLDRQHFRPGPHSRAPGVLGGNDYFASGVWVAGDSAAGRPAAESPTTAPGWASGLSAGGAVWARGVAATGPALDHAARQLREQVRHDLFGAAPLVLRRLEHHHHHH,not soluble
12,MTTRRLALFDLDHTLLPLDSDYQWADFLARTGRAGDPAEARRRNDDLMERYNRGELTAEQAAEFMLGLLAAHSPVELAAWHEEFMRDVIRPSLTAQAVDVVRGHLAAGDLCALVTATNSFVTAPIARAFGVQHLIATDPEYRDGRYTGRIEGTPSFREGKVVRVNQWLAGMGLALGDFAESYFYSDSVNDVPLLEAVTRPIAANPSPGLREIAQARGWQVIDLFDHLEDAKS,not soluble
13,MTTSHRPQLEARSGAKAAAYTPTGIEHARLLPGHTTLKYRKFKEEENLRANCAQEDRSNDKSLEEAVMNEEKQDVVGSGNLQETRSEKDQKDSLQELLVTQKNKVEDKAELEGNEQLKGGNSSRRSWRKGTAFGRHKVTKETNIKEHATKKSASGYINDMTKSEYHQEFLHKHVR,not soluble
14,MTTSTKLVELLYQLEAQLQKHELWQQTMPSPEALQSVEPFAIDTLDPHEWLQWIFIARMHALVESSQPLPRGFSIEPYFAEVWKQEPQYAELLNTIRTIDELCKLEHHHHHH,not soluble
15,MTTTKANLTEFEQQLVDKAIGAMENAYCKYSNFKVGAALVCDDGEIIIGANHENASYGATICAERSAIVTALTKGHRKFKYIVVATELEAPCSPCGVCRQVLIEFGDYKVILGSSTSDQIIETTTYELLPYAFTPKSLDDHEKETEERKHHNDHNNKE,not soluble
